Blank lines part the entries; values can stand above or below the substance they belong to.
Assays:
[1] = molecular target: soluble dimeric FcγRIIB-Fc fusion protein (extracellular domain of FcγRIIB fused to hinge-CH2-CH3 of human IgG2) (human) (UniProt P31994); assay: SPR (BIAcore), Ab captured on BSA-FITC, separate fit 200/800 nM
[2] = molecular target: FcγRIIIA on natural killer cells of human donor PBMC (human) (UniProt P08637); assay: cell-based or functional assay
[3] = molecular target: soluble dimeric FcγRIIB-Fc fusion protein (extracellular domain of FcγRIIB fused to hinge-CH2-CH3 of human IgG2) (human) (UniProt P31994); assay: ELISA
[4] = molecular target: soluble monomeric FcγRIIIA (extracellular region of FcγRIIIA joined to the linker-AVITAG sequence) (human) (UniProt P08637); assay: ELISA
[5] = molecular target: FcγRIIIA (CD16A), V158 allotype (human) (UniProt P08637); assay: not stated; human FcRs
FcγRIIB (CD32B) (human) [6] = molecular target: FcγRIIB (CD32B) (human) (UniProt P31994); assay: not stated; human FcRs
[7] = molecular target: FcγRIIIA (CD16A), F158 allotype (human) (UniProt P08637); assay: not stated; human FcRs
[8] = molecular target: FcγRIIA (CD32A), H131 allotype (human) (UniProt P12318); assay: not stated; human FcRs
[9] = molecular target: FcγRIIIA (CD16A), V158 allotype (human) (UniProt P08637); assay: BIAcore (as Table 27)
FcγRIIB (CD32B) (human) [10] = molecular target: FcγRIIB (CD32B) (human) (UniProt P31994); assay: BIAcore (as Table 27)
[11] = molecular target: FcγRIIIA (CD16A), F158 allotype (human) (UniProt P08637); assay: BIAcore (as Table 27)
[12] = molecular target: FcγRIIIA (CD16A), V158 allotype (human) (UniProt P08637); assay: BIAcore
FcγRIIB (CD32B) (human) [13] = molecular target: FcγRIIB (CD32B) (human) (UniProt P31994); assay: BIAcore
[14] = molecular target: FcγRIIIA (CD16A), F158 allotype (human) (UniProt P08637); assay: BIAcore
[15] = molecular target: FcγRIIA (CD32A), H131 allotype (human) (UniProt P12318); assay: BIAcore
[16] = molecular target: soluble monomeric FcγRIIIA (extracellular region of FcγRIIIA joined to the linker-AVITAG sequence) (human) (UniProt P08637); assay: SPR (BIAcore), Ab captured on BSA-FITC, separate fit 200/800 nM
[17] = molecular target: soluble monomeric FcγRIIIA 158V (extracellular region joined to linker-AVITAG) (human) (UniProt P08637); assay: SPR (BIAcore), Fc mutant in ch4-4-20, off rate relative to wild type
[18] = molecular target: soluble dimeric FcγRIIB-Fc fusion protein (extracellular domain of FcγRIIB fused to hinge-CH2-CH3 of human IgG2) (human) (UniProt P31994); assay: as above

Sequence of FcγRIIIA on natural killer cells of human donor PBMC (human) (P08637 17-254): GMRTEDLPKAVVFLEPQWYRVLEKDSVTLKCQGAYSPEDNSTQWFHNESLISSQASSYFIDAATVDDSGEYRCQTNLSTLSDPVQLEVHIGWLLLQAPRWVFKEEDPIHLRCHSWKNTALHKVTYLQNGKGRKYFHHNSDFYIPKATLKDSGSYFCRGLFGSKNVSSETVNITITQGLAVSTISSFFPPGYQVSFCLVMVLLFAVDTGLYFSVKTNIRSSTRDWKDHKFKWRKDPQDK
Sequence of soluble monomeric FcγRIIIA (extracellular region of FcγRIIIA joined to the linker-AVITAG sequence) (human) (P08637 17-208): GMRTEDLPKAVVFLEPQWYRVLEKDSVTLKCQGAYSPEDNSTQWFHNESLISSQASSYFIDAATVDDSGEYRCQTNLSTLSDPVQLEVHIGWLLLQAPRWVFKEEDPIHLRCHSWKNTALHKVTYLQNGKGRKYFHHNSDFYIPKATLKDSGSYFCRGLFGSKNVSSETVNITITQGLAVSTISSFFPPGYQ
Sequence of FcγRIIIA (CD16A), F158 allotype (human) (P08637 17-208 limits assumed): as the sequence (P08637 17-208) above
Sequence of FcγRIIA (CD32A), H131 allotype (human) (P12318 34-217 limits assumed): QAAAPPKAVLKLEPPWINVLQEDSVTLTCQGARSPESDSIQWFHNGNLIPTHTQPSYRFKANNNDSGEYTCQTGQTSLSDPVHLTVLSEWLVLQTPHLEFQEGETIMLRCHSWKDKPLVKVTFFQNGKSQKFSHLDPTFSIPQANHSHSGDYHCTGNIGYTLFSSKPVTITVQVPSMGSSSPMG
Sequence of soluble dimeric FcγRIIB-Fc fusion protein (extracellular domain of FcγRIIB fused to hinge-CH2-CH3 of human IgG2) (human) (P31994 43-217): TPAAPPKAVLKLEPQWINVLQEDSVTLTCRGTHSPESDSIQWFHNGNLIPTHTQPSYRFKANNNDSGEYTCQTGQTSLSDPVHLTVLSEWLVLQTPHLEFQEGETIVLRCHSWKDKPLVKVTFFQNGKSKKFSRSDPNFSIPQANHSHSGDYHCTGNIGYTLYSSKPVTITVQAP
Sequence of FcγRIIB (CD32B) (human) (P31994 43-217 limits assumed): as the sequence (P31994 43-217) above
Sequence of FcγRIIIA (CD16A), V158 allotype (human) (P08637 17-208 F176V limits assumed): as the sequence (P08637 17-208) above, with F160V counted along it
Sequence of soluble monomeric FcγRIIIA 158V (extracellular region joined to linker-AVITAG) (human) (P08637 17-208 F176V): as the sequence (P08637 17-208) above, with F160V counted along it

Substance: immunoglobulin with Fc variant P396L (antibody)
- fold change vs wild-type affinity [5]: 0.3 fold
- fold change vs wild-type affinity (FcγRIIB (CD32B) (human) [6]): 1.6 fold
- fold change vs wild-type affinity [7]: 0.7 fold
- fold change vs wild-type affinity [8]: 0.6 fold
- Koff WT/Koff mutant [9]: 1.27
- Koff WT/Koff mutant (FcγRIIB (CD32B) (human) [10]): 2.58
- Koff WT/Koff mutant [11]: 1.73
- Koff WT/Koff mutant [12]: 1.27
- Koff WT/Koff mutant (FcγRIIB (CD32B) (human) [13]): 2.58
- Koff WT/Koff mutant [14]: 1.73
- Koff WT/Koff mutant [15]: 1.63

Substance: ch4-4-20 Mut16 (F372Y) (antibody)
- Kd [16]: 84.8 nM
- ADCC, % [2]: 15%
- ELISA, OD [3]: 1.55 OD
- ELISA, OD [4]: 1 OD

Substance: ch4-4-20 MgFc39 (E293V, Q295E, A327T) (antibody)
- Koff WT/Mut [17]: 0.86
- Koff WT/Mut [18]: 1.3
- Relative rate of lysis (ADCC, vs wild type ch4-4-20) [2]: 4.29

Substance: ch4-4-20 MgFc43b (K288R, T307A, K344E, P396L) (antibody)
- Koff WT/Mut [17]: 1.27
- Koff WT/Mut [18]: 0.89
- Relative rate of lysis (ADCC, vs wild type ch4-4-20) [2]: 3.3

Substance: ch4-4-20 Mut14 (K288M, K334E) (antibody)
- Kd [1]: 95.6 nM
- koff [1]: 0.089 s⁻¹
- Kd [16]: 75.4 nM
- koff [16]: 0.1 s⁻¹
- kon [16]: 1.37e+06 M⁻¹ s⁻¹
- ADCC, % [2]: 28%
- ELISA, OD [3]: 0.13 OD
- ELISA, OD [4]: 1.1 OD

Substance: ch4-4-20 Mut19 (K334N, K246I) (antibody)
- Kd [1]: 45.3 nM
- ADCC, % [2]: 11%
- ELISA, OD [4]: 0.75 OD

Substance: ch4-4-20 Mut18 (K326E) (antibody)
- Kd [1]: 51.7 nM
- koff [1]: 0.043 s⁻¹
- Kd [16]: 92 nM
- koff [16]: 0.112 s⁻¹
- kon [16]: 1.23e+06 M⁻¹ s⁻¹
- ADCC, % [2]: 28%
- ELISA, OD [3]: 1.25 OD
- ELISA, OD [4]: 1 OD

Now from value to substance, other results behind:

- Kd [1]: 41.3 nM
- ELISA, OD [3]: 1.2 OD
- ELISA, OD [4]: 1 OD
Substance: ch4-4-20 Mut10 (P396L, A330S, K288N) (antibody)
- ADCC, % [2]: 41%

- Koff WT/Mut [17]: 1.23
- Koff WT/Mut [18]: 2.29
Substance: ch4-4-20 MgFc43 (Y319F, P352L, P396L) (antibody)
- Relative rate of lysis (ADCC, vs wild type ch4-4-20) [2]: 1.09

- Koff WT/Mut [17]: 0.977
- Koff WT/Mut [18]: 1.03
Substance: ch4-4-20 MgFc37 (K248M) (antibody)
- Relative rate of lysis (ADCC, vs wild type ch4-4-20) [2]: 3.83

- fold change vs wild-type affinity [5]: 0.6 fold
- fold change vs wild-type affinity (FcγRIIB (CD32B) (human) [6]): -2.5 fold
- fold change vs wild-type affinity [7]: 0.1 fold
- fold change vs wild-type affinity [8]: -3.3 fold
Substance: immunoglobulin with Fc variant S298A, E333A, K334A (control AAA) (antibody)

- fold change vs wild-type affinity [5]: 0.4 fold
- fold change vs wild-type affinity (FcγRIIB (CD32B) (human) [6]): -1.7 fold
- fold change vs wild-type affinity [7]: 0.1 fold
- fold change vs wild-type affinity [8]: 0.4 fold
- Koff WT/Koff mutant [9]: 2.18
- Koff WT/Koff mutant (FcγRIIB (CD32B) (human) [10]): 0.78
- Koff WT/Koff mutant [11]: 2.49
- Koff WT/Koff mutant [12]: 2.18
- Koff WT/Koff mutant (FcγRIIB (CD32B) (human) [13]): 0.78
- Koff WT/Koff mutant [14]: 2.49
- Koff WT/Koff mutant [15]: 1.95
Substance: immunoglobulin with Fc variant D270E, G316D, R416G (antibody)

- fold change vs wild-type affinity [5]: 0 fold
- fold change vs wild-type affinity (FcγRIIB (CD32B) (human) [6]): 0.2 fold
- fold change vs wild-type affinity [7]: 0.2 fold
- fold change vs wild-type affinity [8]: 1.9 fold
- Koff WT/Koff mutant [9]: 1.01
- Koff WT/Koff mutant (FcγRIIB (CD32B) (human) [10]): 1.18
- Koff WT/Koff mutant [12]: 1.01
- Koff WT/Koff mutant (FcγRIIB (CD32B) (human) [13]): 1.18
- Koff WT/Koff mutant [14]: 1.17
- Koff WT/Koff mutant [15]: 1.86
Substance: immunoglobulin with Fc variant Y300L (antibody)

- fold change vs wild-type affinity [5]: 13.9 fold
- fold change vs wild-type affinity (FcγRIIB (CD32B) (human) [6]): 0.74 fold
- fold change vs wild-type affinity [7]: 8.1 fold
- fold change vs wild-type affinity [8]: 0 fold
Substance: immunoglobulin with Fc variant S239D, A330L, I332E (control XmAb) (antibody)

- Kd [1]: 108 nM
- koff [1]: 0.107 s⁻¹
- Kd [16]: 70.2 nM
- koff [16]: 0.105 s⁻¹
- kon [16]: 1.43e+06 M⁻¹ s⁻¹
- ELISA, OD [3]: 0.1 OD
- ELISA, OD [4]: 1.25 OD
Substance: ch4-4-20 Mut23 (K334E, R292L) (antibody)
- ADCC, % [2]: 25%

- fold change vs wild-type affinity [5]: 1.6 fold
- fold change vs wild-type affinity (FcγRIIB (CD32B) (human) [6]): -13.3 fold
- fold change vs wild-type affinity [7]: 0.4 fold
- fold change vs wild-type affinity [8]: -3.3 fold
- Koff WT/Koff mutant [9]: 2.56
- Koff WT/Koff mutant [11]: 1.43
- Koff WT/Koff mutant [12]: 2.56
- Koff WT/Koff mutant [14]: 1.43
- Koff WT/Koff mutant [15]: 0.23
Substance: immunoglobulin with Fc variant F243L, R292P, V305I (antibody)

— patent US20120219551A1
